B1: Human ATPIF1 (peptide, listed as Homo sapiens)
chain: GSDQSENVDRGAGSIREAGGAFGKREQAEEERYFRAQSREQLAALKKHHEEEIVHHKKEIERLQKEIERHKQKIKMLKHDD
B2: His tag Human ATPIF1 (protein)
chain: MGSHHHHHHSSGLVPRGSHMGSDQSENVDRGAGSIREAGGAFGKREQAEEERYFRAQSREQLAALKKHHEEEIVHHKKEIERLQKEIERHKQKIKMLKHDD
notes: Recombinant protein: His tag-wild-type substance (1-81), control group

What was measured:
[1] = mouse, in vivo, 2.5 mg/kg
Experimental: For evaluation, ten-week-old C57BL/6 mice were used, and the mice were reared in a specialized animal facility which provided a normal diet and a 12/12 hour night/day cycle and then used for experimentation.
The synthetic peptide (SEQ ID NO: 8) and fusion protein (SEQ ID NO: 13) were each injected into the mice at a concentration of 2.5 mg/kg, and blood was collected at 0, 0.5, 2, 4, 24 hours after injection. The collected blood was centrifuged and the obtained plasma was analyzed. At this time, in order to perform effective quantification of the substances, each substance was conjugated with Dylight 680 Near-Infrared dye (NIR) in advance prior to injection, and the finally collected blood samples were examined by observing fluorescent signals with a SpectraMax i3 microplate reader device.

3T3-L1 adipocytes = assay: Lipid droplet analysis (BODIPY 493/503, confocal) in 3T3-L1 adipocytes; type: cell-based, mouse; details: differentiated 3T3-L1 adipocytes, 100 nM, 30 hours
Experimental: To observe the functionality of the fusion proteins related to lipid metabolism, the 3T3-L1 mouse pre-adipocyte cell line was used as the cell line itself (undifferentiated) or by differentiating into adipocytes. Differentiation into the adipocytes was performed by inducing primary differentiation for the 3T3-L1 cells in a medium containing DMEM, 10% FBS, 10 μg/ml insulin, 0.5 mM IBMX (3-Isobutyl-1-methylxanthine), and 1 μM dexamethasone for 2 days, and inducing secondary differentiation with a medium containing DMEM, 10% FBS, and 10 μg/ml insulin for the remaining 4 days. The adipocytes in which differentiation was finally completed were treated with the test substances at a concentration of 100 nM for 30 hours (Control: PBS) and then used for each test.
In addition, lipid droplets of adipocytes were stained with BODIPY 493/503 dye sample, and then confocal image scanning was performed to analyze the size and diameter of the lipid droplets.

plasma proteins = assay: Plasma protein binding test (PPB); type: in vitro ADME, mice; details: mouse plasma, 5 uM, 37° C., 4 hours, 100 kD filter, western blot
Experimental: Such an increase in half-life was further confirmed by measuring plasma protein binding rates (Plasma protein binding test, PPB). […] Each of the plasma of the mice and the fusion protein (SEQ ID NO: 13), and or His tag-wild-type substance (1-81) (SEQ ID NO: 5) was incubated at a concentration of 5 uM at 37° C. for 4 hours. After that, they were centrifuged with a 100 kD filter to obtain fractions of the substance bound to the plasma proteins or fractions of the unbound substance. Each of the obtained fractions was evaluated by western blot.

[2] = tested on: follicular cells (dermal papilla cells); assay: Follicular cell proliferation by MTT assay; type: cell-based; details: 100 nM, 24 hours; compared with Control (PBS)
Experimental: Whether the test substances of the present invention has effects on preventing hair loss or promoting hair growth was evaluated as follows. Specifically, it was observed whether they have efficacy of improving loss of follicular cells in scalp tissue which is a cause of hair loss, or hair growth due to an increase in hair follicles, by using dermal papilla cells and evaluating cell proliferation of follicular cells.
The follicular cells were treated with each test substance 100 nM (control: PBS) for 24 hours, and the degree of cell proliferation was evaluated by MTT assay.

[3] = tested on: Akt and S6 (phosphorylation, p-Akt/p-S6) in C2C12 mouse skeletal muscle cell line; assay: Akt and S6 phosphorylation (western blot) in C2C12 muscle cells; type: cell-based; details: 2 hours
Experimental: In order to evaluate functions related to muscle loss diseases, each test substance was treated to the undifferentiated C2C12 mouse skeletal muscle cell line (mouse myoblast cell line) or the cell line in which differentiation into myotubes was completed. Differentiation of the cell line into myotubes was performed by conducting addition of 2% horse serum to culture medium and replacement with new medium every two days for a total of 4 days.
To the undifferentiated or differentiated cell lines, the test substances, fusion proteins (SEQ ID NOs: 1, 2, 3, 7, 14 and 15) were treated at a concentration of 100 nM (Control: PBS treated group) for 2 hours. Thereafter, the cells were immediately washed once and the cells were lysed with RIPA buffer (Radioimmunoprecipitation assay buffer). The activity of Akt and S6 (phosphorylation, p-Akt/p-S6) was observed by western blot. Akt phosphorylation is a well-known marker of activation of cell signaling pathways, and is an indicator of beneficial effects on muscle cells such as promotion of glucose metabolism and promotion of muscle biosynthesis. Similarly, S6 phosphorylation is a well-known marker of mTOR activity, and the activity of mTOR is an indicator showing muscle biosynthesis and various cell signaling pathways.

[4] = C2C12 differentiated into myotubes, 100 nM, control PBS
[5] = Table 6, C2C12, 100 nM, differentiation state not given
[6] = undifferentiated C2C12, 100 nM, control PBS

Molecule | Half-life [1] [h] | Lipid droplet size (3T3-L1 adipocytes) | Maximum lipid droplet diameter per cell (3T3-L1 adipocytes) | Total lipid droplet area (3T3-L1 adipocytes) | Binding rate with the plasma proteins (plasma proteins) [%] | Cell viability (MTT, cell proliferation) [2] | Activity (% increase compared to control) Differentiated Akt [3, 4] [%] | Activity (% increase compared to control) Differentiated S6 [3, 4] [%] | Activity (% increase compared to control) Akt [3, 5] [%] | Activity (% increase compared to control) S6 [3, 5] [%] | Activity (% increase compared to control) Undifferentiated Akt [3, 6] [%] | Activity (% increase compared to control) Undifferentiated S6 [3, 6] [%]
B1 | 1.6 | reduced at a significant level | reduced at a significant level | reduced at a significant level | – | – | – | – | – | – | – | –
B2 | – | – | – | – | 5 | significantly increased | 248 | 262 | 254 | 217 | 165 | 207

Reference: patent US20260274910A1, “SINGLE FUSION PROTEIN AND PHARMACEUTICAL COMPOSITION” (MEDI&GENE INC., priority 2023, published 2026)
